Measured values as given in US20220411536A1 (NUMAB THERAPEUTICS, published 2022).

Columns and labels:
[1] = target: T1, CD3e on Jurkat PD-1 NFAT reporter T cells or on T cells of human PBMCs (human, UniProt P07766 23-207); test: cell-based or functional assay
[2] = target: T2, human PD-L1 expressed on cells (CHO-PD-L1, HCC1954, HCC827) (human, UniProt Q9NZQ7 19-290); test: flow cytometry, inhibition of biotinylated PD-1 binding to HCC1954 cells
T2 construct: whole, on cells; also called hPD-L1; PD-L1 expressing cells

[3] = target: T1, CD3e on Jurkat PD-1 NFAT reporter T …; test: cell-based or functional assay; remark: listed apart in the source
[4] = target: T2, human PD-L1 expressed on cells …; test: flow cytometry, inhibition of biotinylated PD-1 binding to HCC827 cells
[5] = target: T3, recombinant human CD3E ECD (SinoBiological, cat. 10977-H08H) (human, UniProt P07766 23-126); test: SPR, immobilised CD3e ECD, two-state model (kd1)
T3 construct: extracellular domain; bought protein; also called CD3s

[6] = target: T4, recombinant human Her2 ECD (SinoBiological, cat. 10004-HCCH) (human, UniProt P04626 23-652); test: SPR, immobilised Her2 ECD
T4 construct: extracellular domain; bought protein

[7] = target: T5, Fc-tagged human PD-L1 extracellular domain (SinoBiological, cat. 10084-H02H) (human, UniProt Q9NZQ7 19-238); test: SPR, captured Fc-PD-L1 ECD, kinetic
T5 construct: extracellular domain; also called hPD-L1; not shown: Fc tag of the bought protein

[8] = target: T3, recombinant human CD3E ECD …; test: SPR, immobilised CD3e ECD, two-state model
[9] = target: T6, recombinant human IL-23R (custom-made by Trenzyme) (human, UniProt Q5VWK5 24-355); test: SPR, immobilised IL-23R
T6 sequence (looked up): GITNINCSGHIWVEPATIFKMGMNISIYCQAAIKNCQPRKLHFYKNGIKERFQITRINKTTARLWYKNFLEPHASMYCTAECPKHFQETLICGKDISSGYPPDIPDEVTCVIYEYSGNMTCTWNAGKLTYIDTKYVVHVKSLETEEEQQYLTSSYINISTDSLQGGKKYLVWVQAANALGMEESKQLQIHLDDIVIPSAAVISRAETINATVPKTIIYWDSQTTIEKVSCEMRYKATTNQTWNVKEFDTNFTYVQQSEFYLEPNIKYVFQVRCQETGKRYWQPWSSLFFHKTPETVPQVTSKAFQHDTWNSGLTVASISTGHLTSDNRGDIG

[10] = target: T3, recombinant human CD3E ECD …; test: SPR, immobilised CD3e ECD, two-state model (ka1)
[11] = target: T2, human PD-L1 expressed on cells …; test: flow cytometry with human SA, inhibition of PD-1 binding to HCC827 cells
[12] = target: CD137 on transgenic NF-kB Jurkat reporter cells (Homo sapiens (Human), UniProt Q07011 24-255); test: cell-based or functional assay
[13] = target: T2, human PD-L1 expressed on cells …; test: flow cytometry with human SA, inhibition of PD-1 binding to HCC1954 cells
[14] = target: T2, human PD-L1 expressed on cells …; test: flow cytometry, CHO-PD-L1 cells
[15] = target: T2, human PD-L1 expressed on cells …; test: cell-based or functional assay
[16] = target: T5, Fc-tagged human PD-L1 extracellular …; test: SPR, captured Fc-PD-L1 ECD, scFv analyte, kinetic
[17] = target: T5, Fc-tagged human PD-L1 extracellular …; test: SPR, alanine mutants of 33-03-G02

T3 sequence (P07766 23-126): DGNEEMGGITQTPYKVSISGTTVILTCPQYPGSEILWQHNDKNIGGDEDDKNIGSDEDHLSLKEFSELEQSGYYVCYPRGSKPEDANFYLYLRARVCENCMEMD

B1: PRO1455 (multispecific antibody)
chain 1: DIQMTQSPSSLSASVGDRVTITCQASENIYSFLAWYQQKPGKAPKLLIYSASKLAAGVPSRFSGSGSGTDFTLTISSLQPEDFATYYCQQTNRYSNPDIYNVFGTGTKVTVLGTVAAPSVFIFPPSDEQLKSGTASVVCLLNNFYPREAKVQWKVDNALQSGNSQESVTEQDSKDSTYSLSSTLTLSKADYEKHKVYACEVTHQGLSSPVTKSFNRGECGGGGSGGGGSDIQMTQSPSSLSASVGDRVTITCQSSQSVFSNNYLAWFQQKPGQSPKRLIYSASTLASGVPSRFSGSGSGTDFTLTISSLQPEDFATYYCLGSYACSSADCYVFGTGTKVTVLGGGGGSGGGGSGGGGSGGGGSEVQLVESGGGLVQPGGSLRLSCAASGFSLSSYDMSWVRQAPGKGLAWIGASYASGPTYYASWAKGRFTISRDNSKNTVYLQMNSLRAEDTATYFCARGGWTGTSHSNIWGQGTLVTVSS
chain 2: EVQLVESGGGLVQPGGSLRLSCAASGIDFNSNYYMCWVRQAPGKGLEWIGCIYVGSHVNTYYANWAKGRFTISRDNSKNTVYLQMNSLRAEDTAVYYCATSGSSVLYFKFWGQGTLVTVSSASTKGPSVFPLAPSSKSTSGGTAALGCLVKDYFPEPVTVSWNSGALTSGVHTFPAVLQSSGLYSLSSVVTVPSSSLGTQTYICNVNHKPSNTKVDKKVEPKSCGGGGSGGGGSDIQMTQSPSSLSASVGDRVTITCQASQSINDYLAWYQQKPGKAPKLLIYKASTLASGVPSRFSGSGSGTDFTLTISSLQPEDFATYYCQQAYIITDIDNVFGTGTKVTVLGGGGGSGGGGSGGGGSGGGGSQVQLQESGPGLVKPSETLSLTCKVSGFSFSSGYDMCWIRQPPGKGLEWIGCVVAGSVDITYYASWAKGRVTISVDSSKNQFSLKLSSVTAADTAVYYCARKDAYSDAFNLWGQGTLVTVSS
- fold weaker activation than PRO1454, NFAT reporter, HCC1954 cells [1]: 27 fold
- IC50 [2]: 2.85 µg/mL
- IC50, NFAT reporter, HCC1954 cells [3]: 4.07 nM
- IC50 [4]: 2.8 µg/mL

B2: PRO1498 (multispecific antibody)
chain 1: DIQMTQSPSSLSASVGDRVTITCQASENIYSFLAWYQQKPGKAPKLLIYSASKLAAGVPSRFSGSGSGTDFTLTISSLQPEDFATYYCQQTNRYSNPDIYNVFGTGTKVTVLGTVAAPSVFIFPPSDEQLKSGTASVVCLLNNFYPREAKVQWKVDNALQSGNSQESVTEQDSKDSTYSLSSTLTLSKADYEKHKVYACEVTHQGLSSPVTKSFNRGECGGGGSGGGGSDIQMTQSPSSLSASVGDRVTITCQSSQSVFSNNYLAWFQQKPGQSPKRLIYSASTLASGVPSRFSGSGSGTDFTLTISSLQPEDFATYYCLGSYACSSADCYVFGTGTKVTVLGGGGGSGGGGSGGGGSGGGGSEVQLVESGGGLVQPGGSLRLSCAASGFSLSSYDMSWVRQAPGKGLAWIGASYASGPTYYASWAKGRFTISRDNSKNTVYLQMNSLRAEDTATYFCARGGWTGTSHSNIWGQGTLVTVSS
chain 2: EVQLVESGGGLVQPGGSLRLSCAASGIDFNSNYYMCWVRQAPGKGLEWIGCIYVGSHVNTYYANWAKGRFTISRDNSKNTVYLQMNSLRAEDTAVYYCATSGSSVLYFKFWGQGTLVTVSSASTKGPSVFPLAPSSKSTSGGTAALGCLVKDYFPEPVTVSWNSGALTSGVHTFPAVLQSSGLYSLSSVVTVPSSSLGTQTYICNVNHKPSNTKVDKKVEPKSCGGGGSGGGGSDIQMTQSPSSLSASVGDRVTITCQASQSINDYLAWYQQKPGKAPKLLIYKASTLASGVPSRFSGSGSGTDFTLTISSLQPEDFATYYCQAAYIITDIDNVFGTGTKVTVLGGGGGSGGGGSGGGGSGGGGSQVQLQESGPGLVKPSETLSLTCKVSGFSFSSGYDMCWIRQPPGKGLEWIGCVVAGSVDITYYASWAKGRVTISVDSSKNQFSLKLSSVTAADTAVYYCARKDAYSDAFNLWGQGTLVTVSS
- koff [5]: 0.00584 s⁻¹
- fold weaker activation than PRO1497, NFAT reporter, HCC1954 cells [1]: 475 fold
- IC50 [2]: 7.05 µg/mL
- IC50, NFAT reporter, HCC1954 cells [3]: 172 nM
- rel. max. activation vs PRO1497, NFAT reporter, HCC1954 cells [3]: 71%
- IC50 [4]: 8.54 µg/mL
- binding result [6]: no binding (tested: 90 nM highest concentration)
- Kd [7]: 332 nM
- koff [7]: 0.000379 s⁻¹
- kon [7]: 1140 M⁻¹ s⁻¹
- KD1 [8]: 29.6 nM
- Kd [8]: 19.5 nM
- kd2 [8]: 0.00198 s⁻¹
- Kd [9]: 0.563 nM
- koff [9]: 0.000278 s⁻¹
- kon [9]: 495000 M⁻¹ s⁻¹
- kon [10]: 197000 M⁻¹ s⁻¹

B3: PRO1778 (multispecific antibody)
chain 1: not shown
chain 2: DVVMTQSPSSLSASVGDRVTITCQASQIISSRSAWYQQKPGQPPKLLIYQASKLASGVPSRFSGSGSGTDFTLTISSLQPEDFATYYCQCTYIDSNFGAFGGGTKLTVLGGGGGSGGGGSGGGGSGGGGSEVQLVESGGGLVQPGGSLRLSCAASGFSFSSSYWICWVRQAPGKGLEWVGCVFTGDGTTYYASWAKGRFTISRDNSKNTVYLQMNSLRAEDTATYFCARPVSVYYYGMDLWGQGTLVTVSSGGGGSGGGGSQVQLQESGPGLVKPSETLSLTCKVSGFSFSSGYDMCWIRQPPGKGLEWIGCVVAGSVDITYYASWAKGRVTISVDSSKNQFSLKLSSVTAADTAVYYCARKDAYSDAFNLWGQGTLVTVSSGGGSGGGSEVQLVESGGGLVQPGGSLRLSCAASGFSFSANYYPCWVRQAPGKCLEWIGCIYGGSSDITYDANWTKGRFTISRDNSKNTVYLQMNSLRAEDTAVYYCARSAWYSGWGGDLWGQGTLVTVSS
- IC50 [11]: 6.72 µg/mL
- EC50, NFkB reporter gene assay, HCC1954 cells [12]: 0.661 nM
- IC50 [13]: 1.42 µg/mL

B4: PRO830 (scFv, V domains shown)
VH: QVQLQESGPGLVKPSETLSLTCKVSGFSFSSGYDMCWIRQPPGKGLEWIGCVVAGSVDITYYASWAKGRVTISVDSSKNQFSLKLSSVTAADTAVYYCARKDAYSDAFNLWGQGTLVTVSS
VL: DIQMTQSPSSLSASVGDRVTITCQASQSINDYLAWYQQKPGKAPKLLIYKASTLASGVPSRFSGSGSGTDFTLTISSLQPEDFATYYCQQGYIITDIDNVFGTGTKVTVLG
notes: also called 33-03-G02; parental scFv
- EC50 [14]: 0.0055 µg/mL
- IC50, neutralization of PD-L1 in NF-AT potency assay [15]: 0.0204 µg/mL
- Kd [16]: 0.0781 nM
- koff [16]: 0.000139 s⁻¹
- kon [16]: 1.78e+06 M⁻¹ s⁻¹

B5: PRO1075 (scFv, V domains shown)
VH: QVQLQESGPGLVKPSETLSLTCKVSGFSFSSGYDMCWIRQPPGKGLEWIGCVVAGSVDITYYASWAKGRVTISVDSSKNQFSLKLSSVTAADTAVYYCARKDAYSDAFNLWGQGTLVTVSS
VL: DIQMTQSPSSLSASVGDRVTITCQASQSINDYLAWYQQKPGKAPKLLIYKASTLASGVPSRFSGSGSGTDFTLTISSLQPEDFATYYCQAGYIITDIDNVFGTGTKVTVLG
notes: also called 33-03-G02 VL-Q108A
- EC50 [14]: 333 µg/mL
- fold reduction of affinity vs the original domain [17]: > 100 fold
- IC50, neutralization of PD-L1 in NF-AT potency assay [15]: 0.828 µg/mL
- Kd [16]: 12.2 nM
- koff [16]: 0.0205 s⁻¹
- kon [16]: 1.67e+06 M⁻¹ s⁻¹

B6: PRO1089 (scFv, V domains shown)
VH: QVQLQESGPGLVKPSETLSLTCKVSGFSFSSGYDMCWIRQPPGKGLEWIGCVVAGSVDITYYASWAKGRVTISVDSSKNQFSLKLSSVTAADTAVYYCARKDAASDAFNLWGQGTLVTVSS
VL: DIQMTQSPSSLSASVGDRVTITCQASQSINDYLAWYQQKPGKAPKLLIYKASTLASGVPSRFSGSGSGTDFTLTISSLQPEDFATYYCQQGYIITDIDNVFGTGTKVTVLG
notes: also called 33-03-G02 VH-Y112A
- EC50 [14]: 51.2 µg/mL
- fold reduction of affinity vs the original domain [17]: > 100 fold
- IC50, neutralization of PD-L1 in NF-AT potency assay [15]: 1.28 µg/mL
- Kd [16]: 16.5 nM
- koff [16]: 0.0328 s⁻¹
- kon [16]: 1.99e+06 M⁻¹ s⁻¹
